From patent US20220235132A1 (ANAPTYSBIO, published 2022) come the findings set out here.

Where a chain is given by its changes, count along the chain named. Names may count otherwise. “And” between values parts separate entries of the source, which are not always exact repeats. Equal entries are not always repeated.

Assay [1] deals with T1, cynomolgus PD-1 (as used in KinExA) (cynomolgus monkey).
T1 construct: also called Cynomolgus PD-1 KD (KinExA)
Briefly: KinExA (kinetic exclusion assay). A general note: In KinExA the mixture passes briefly over coated beads that capture the unbound partner.

The target in assay [2] is T2, biotinylated human PD-1 extracellular domain monomer (human, UniProt Q15116 25-170, biotinylated (site not stated)).
T2 construct: extracellular domain; Captured on a streptavidin sensor chip for SPR; also called Human PD-1 (SPR)
Briefly: SPR (Biacore T200), biotinylated PD-1 ECD monomer captured on SA chip. On the technique in general: In SPR one partner is held on a chip, and binding of the other changes the refractive index at the surface.

Assay [3] has as its target T3, biotinylated cynomolgus monkey PD-1 extracellular domain monomer (cynomolgus monkey, UniProt B0LAJ3 25-170, Biotinylated; neither the site nor the method is stated, and the letters do not carry it.).
T3 construct: Captured on a streptavidin sensor chip for SPR; also called Cynomolgus PD-1 (SPR)
The assay is described as above.

For assay [4], the target named is T4, cynomolgus monkey PD-1 expressed on cells (cynomolgus monkey, UniProt B0LAJ3 25-288).
T4 construct: also called cynomolgus PD-1; PD-1 on stably transfected HEK 293 cells
Briefly: flow cytometry, HEK 293 cells stably expressing cynomolgus monkey PD-1. As for the experimental part:
HEK 293 cells were stably transfected to express either human PD-1 or cynomolgus monkey PD-1. Cells were harvested by Accutase™ treatment (Innovative Cell Technologies, San Diego, Calif.), the cells expressing cynomolgus monkey PD-1 were treated with the lipophilic fluorescent dye Vybrant® DiD (ThermoFisher Scientific, Carlsbad, Calif.), and then mixed with an equal number of unlabeled HEK 293 cells expressing human PD-1. Cells (2×10⁵ total per sample) were stained with the indicated concentrations of each antibody for 40 min at 4° C. with gentle shaking, centrifuged and washed once. Cells were fixed in 2% paraformaldehyde in phosphate-buffered saline (PBS) for 10 min at room temperature, washed, and antibodies detected with Phycoerythrin (PE)-conjugated goat anti-human kappa (Southern Biotechnology, Birmingham, Ala.) for 15 min at 4° C. with gentle shaking. Cells were washed, resuspended, and bound antibody fluorescence quantified on a BD FACSArray™ (BD Biosciences, San Jose, Calif.). Data were analyzed for median fluorescence intensity (MFI) using FlowJo® analysis software (FlowJo, LLC). ECso values were determined in GraphPad Prism 5.0 (GraphPad Software) using a log(agonist) vs. response—Variable slope (4 parameters) curve fit. The results are shown in FIGS. 1 and 2, and the ECso values are set forth in Table 2 (human) and Table 3 (cynomolgus monkey). […]

For assay [5], the target named is T5, human PD-1 expressed on cells (human, UniProt Q15116 25-288).
T5 construct: whole, on cells; Used for all cell-based assays with human PD-1 (transfectants and primary T cells)
Briefly: flow cytometry, 2-day anti-CD3/anti-CD28 activated human CD4+ T cells. The procedure:
Primary human peripheral blood CD4⁺ T cells were prepared using magnetic bead separation (CD4⁺ T Cell Isolation Kit, Miltenyi Biotec, Auburn, Calif.) of peripheral blood mononuclear cells (PBMCs) and activated for 48 hours with plastic-coated anti-CD3 and anti-CD28 in 6-well plates. Cells (1×10⁵ per sample) were washed and stained in V-bottom 96-well plates with the indicated concentrations of each antibody for 30 min at 4° C. with gentle shaking, centrifuged and washed once. Cells were fixed in 4% paraformaldehyde in PBS for 10 min at room temperature, washed, and antibodies detected with Alexa Fluor 647-conjugated F(ab′)2 goat anti-human IgG Fc (Jackson ImmunoResearch, West Grove, Pa.) for 10 min at 4° C. Cells were washed, resuspended, and bound antibody fluorescence quantified on a BD FACSArray™ (BD Biosciences, San Jose, Calif.). Data were analyzed for geometric mean fluorescence intensity (MFI) using FlowJo® analysis software (FlowJo, LLC). ECso values were determined in GraphPad Prism 7.02 (GraphPad Software) using a log(agonist) vs. response—Variable slope (4 parameters) curve fit.

The target in assay [6] is T5, human PD-1 expressed on cells. Briefly: cell-based or functional assay.
Assay [7] deals with T3, biotinylated cynomolgus monkey PD-1 …. Briefly: SPR screening (method taken from paragraph 169), N = 2. The procedure:
KD measurements for screening by Surface Plasmon Resonance (SPR) were performed on a Biacore T200 (GE Healthcare Life Sciences, Pittsburgh, Pa.), and kinetic constants were fit globally using a 1:1 binding model. Biotinylated human or cynomolgus monkey PD-1 extracellular domain monomer was captured at a 1 nM concentration on a Biacore Sensor chip SA (GE Healthcare Life Sciences, Pittsburgh, Pa.), with a carboxymethylated dextran surface pre-immobilized with streptavidin. The captured antigen level was targeted to yield a low response to prevent avidity effects on the dissociation rate. Tm measurements were determined by fluorescence-based thermal shift and differential scanning calorimetry.

T5 sequence (Q15116 25-288): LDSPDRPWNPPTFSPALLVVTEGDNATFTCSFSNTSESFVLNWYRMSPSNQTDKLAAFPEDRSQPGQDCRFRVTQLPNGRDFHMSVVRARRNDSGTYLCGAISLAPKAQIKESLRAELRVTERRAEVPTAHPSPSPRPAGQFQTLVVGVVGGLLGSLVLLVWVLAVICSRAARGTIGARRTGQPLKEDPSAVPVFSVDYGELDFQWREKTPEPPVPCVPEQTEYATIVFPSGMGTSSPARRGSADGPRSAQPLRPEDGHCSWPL
T4 sequence (B0LAJ3 entry or part of it limits assumed): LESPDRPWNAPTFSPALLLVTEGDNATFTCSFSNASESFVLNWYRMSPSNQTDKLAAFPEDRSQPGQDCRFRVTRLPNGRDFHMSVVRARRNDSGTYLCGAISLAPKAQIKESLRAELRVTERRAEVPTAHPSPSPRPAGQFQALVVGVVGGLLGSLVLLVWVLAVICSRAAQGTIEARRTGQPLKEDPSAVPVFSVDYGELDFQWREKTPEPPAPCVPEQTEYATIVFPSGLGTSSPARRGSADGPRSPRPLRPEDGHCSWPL
T3 sequence (B0LAJ3 entry or part of it limits assumed): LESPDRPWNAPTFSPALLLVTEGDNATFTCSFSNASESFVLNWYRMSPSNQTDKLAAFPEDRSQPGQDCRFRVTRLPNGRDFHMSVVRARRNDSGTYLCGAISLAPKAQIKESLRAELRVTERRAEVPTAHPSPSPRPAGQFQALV
T2 sequence (Q15116 25-170): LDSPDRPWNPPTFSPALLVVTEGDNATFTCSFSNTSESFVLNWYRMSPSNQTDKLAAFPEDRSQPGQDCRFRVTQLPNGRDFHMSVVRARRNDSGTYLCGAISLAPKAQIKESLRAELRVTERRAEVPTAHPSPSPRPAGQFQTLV

B1: APE12043 (437M5-112 anti-PD-1 antibody, ExpiCHO-S transient) (antibody, V domains shown)
VH: QVQLVQSGAEVKKPGASVKVSCKASGYTFTSYSMHWVRQAPGQGLEWMGYINPSSGFTNYIQKFRDRVTMTADKSSSTAYMELSRLRSDDTAVYYCARDYYGRYYYVMDYWGQGTTVTVSS
VL: DIQMTQSPSSLSASVGDRVTITCTASSSVSSSFLHWYQQKPGKAPKLLIYSTSDLASGVPSRFSGSGSGTDFTLTISSLQPEDFATYYCHQYHRSPLTFGGGTKVEIKR
notes: detected with anti-human kappa; Only variable regions are tied to APE12043; the suffixes .02 to .05 are lots; also called APE12043.02; APE12043.03
As a reminder, the Kd is the concentration at which binding is half-saturated. As a reminder, the EC50 is the concentration giving half of the maximal effect. On to B1, for which the Kd in assay [1] was determined as 0.21 nM; in assay [2], 0.031 nM; in assay [3] it was 0.09 nM. For the same molecule, the EC50 in assay [4] is 3.69 nM and 2.69 nM and 2.59 nM; in assay [5], 2.99 nM and 3.06 nM.

B2: APE12538 (437M5-112 anti-PD-1 antibody, CHO-S sorted stable pool) (antibody, human IgG1, kappa, V domains shown)
VH: B1 VH
VL: B1 VL
notes: also called APE12538.01
Turning to B2, the Kd in assay [3] turned out to be 0.217 nM.

B3: APE12890 (3.7C6 anti-PD-1 antibody, CHO-S) (antibody, human IgG1, kappa, V domains shown)
VH: QVQLVQSGSELKKPGASVKVSCKASNYTFTDYSMHWVRQAPGQGLEWMGWINIETYYPTYADQFKGRFAFSLDTSVSTAYLQISSLKAEDTAVYYCARDYYGRFYYAMDYWGQGTTVTVSS
VL: EIVLTQSPATLSLSPGERATLSCTASSSVSSSYFHWYQQKPGQAPRLLIYSTSNLASGIPARFSGSGSGTDFTLTISRLEPEDFAVYYCHQYHRSPLTFGGGTKVEIKR
B3: in assay [6], the “median IC50 for IFN-γ inhibition, human whole blood tetanus toxoid recall assay” value was 0.053 nM and the “median IC50 for IL-17A inhibition, human whole blood tetanus toxoid recall assay” value amounted to 0.097 nM.

B4: APE12095 (3.7C6 anti-PD-1 antibody, ExpiCHO-S transient) (antibody, V domains shown)
VH: B3 VH
VL: B3 VL
notes: detected with anti-human kappa; Only variable regions are tied to APE12095; suffixes are lots; also called APE12095.03; APE12095.04
For B4, the Kd in assay [1] is 0.45 nM; in assay [3], 0.244 nM. Moreover, the EC50 in assay [4] was 7.99 nM and 6.17 nM and 7.47 nM.

B5: APE12537 (3.7C6 anti-PD-1 antibody, CHO-S sorted stable pool) (antibody, human IgG1, kappa, V domains shown)
VH: B3 VH
VL: B3 VL
notes: also called APE12537.01
As for B5, the dissociation constant Kd turned out to be 0.64 nM in assay [7] and 0.445 nM in assay [3].

B6: 030-13263/030-13264 (CDR-grafted) (antibody, V domains shown)
VH: B3 VH with I53A, Q63D
VL: B3 VL
notes: CDR-grafted forerunner of APE12537; APE12537 differs from it by A52aI and D62Q (Kabat) in the heavy chain
B6 showed a Kd in assay [7] of 1.02 nM.
